Data published in US20230044661A1, “VIABLE TISSSUE FORMS AND METHODS FOR MAKING AND USING SAME” (Musculoskeletal Transplant Foundation, priority 2019, published 2023).

What was measured:
[1] = tested on: peripheral blood mononuclear cells (PBMCs); assay: One-way mixed lymphocyte reaction (MLR); format: cell-based, human; conditions: for Proliferated cells (% of all CPD stained), Average: 60 mg tissue, 250K cells, 5 days; for Stimulation Index: vs PBMCs + saline
Procedure: (§1) Cancellous and cortical bone tissue samples were obtained, processed and combined, to produce LyoGraft Bone Grafts. From each donor, cancellous tissue samples comprising cancellous bone were recovered and processed to provide cancellous granules, and cortical bone tissue samples were recovered and processed to provide cortical fibers. Quantities of cancellous granules and cortical fibers derived from the same donor were measured and combined to produce three test samples per donor, each of which contained about 40 wt % cancellous granules and about 60 wt % cortical fibers, the wt % being based on the total weight of the combined cancellous granules and cortical fibers of each sample. The total weights of the test samples (i.e., each comprising both cancellous granules and cortical fibers) ranged from 1.3 g to 1.6 g. The test samples were preserved after contact with protectants in solution, in accordance with the methods described hereinabove. Peripheral blood mononuclear cells (PBMCs) were procured from three unique blood donors in order to test for a one-way and two-war mixed lymphocyte reaction (MLR) assay. In a one-way set up, PBMCs are exposed to a test article, the lyopreserved tissue samples, and PBMC stimulation or lack thereof is assessed. In a two-way set up, mismatched blood donors are exposed to one another, and an ongoing reaction is stimulated. This ongoing reaction is then put in presence of a test article, the lyopreserved tissue samples, and stimulation or inhibition of this ongoing reaction are assessed. […] Two-way MLR testing was performed on three lyopreserved donor lots to assess the inhibitory or stimulatory effects of an ongoing/developing immunogenic reaction between two mismatched blood donors.
• 11. Blood was obtained from three unique donors and PBMCs were isolated. • 12. PBMCs were stained with a tracking dye, CPD-670, and added to 96-well round bottom culture plates for one-way MLR assay. • 12.1 This dye is used to determine whether or not an immune response has been induced. If there is an immune reaction, cells will proliferate in response to a stimulator, in this case lyopreserved tissue, and dilute the CPD-670 stain. The dilution of the stain decreases the fluorescence signal which will be used to measure any differences across test samples compared to the saline negative control and concanavalin A positive control. • 13. Lyopreserved samples are prepared by adding 30 mL of sterile saline USP to smaller units (Donor 1 and 3) or filling 2 oz jar to the top (60 mL) with saline for larger units (Donor 2), incubating for 2 mins, decanting, and tap-drying with sterile gauze. • 14. 60 mg of lyopreserved tissue per donor and 20 uL of saline were added in tripliciate for each PBMC donor in 96 well plates. • 14.1 Saline is used as a negative control. • 15. PBMCs were added to each test group (250K cells) and incubated for 5 days at 37° C. in 5% CO2 in humidifier incubator. • 16. To calculate % proliferation, cells with decreased dye fluorescent signal were compared to the total number of positively stained cells. • 17. Concanavalin A (ConA) was used as a stimulation positive control to ensure that cells (PBMC) were in good condition to proliferate. • 18. Stimulation Index (SI) was calculated as proliferating cell percentage from wells with PBMCs+lyopreserved tissue sample divided by proliferating cell percentage from PBMCs+saline.

[2] = tested on: mismatched peripheral blood mononuclear cells (PBMCs); assay: Two-way mixed lymphocyte reaction (MLR); format: cell-based, human; conditions: for Stimulation Index: vs same MLR + saline
Procedure: as §1
• 19. Cells (PBMC) from each of two donors were added to wells of 96-well round bottom culture plates. • 20. Only cells from one of the two donors were stained with tracking dye, CPD-670, considered the responder cells. The other donor cells were left unstained, considered the inducer cells. • 21. Assay was repeated using 3 different combinations of responder/inducer cells. • 22. The amount of proliferating responder cells indicates an immune reaction induced by the mismatched inducer cells and is shown as cells with reduced dye content after six days of co-incubation. • 23. Virtuos samples are prepared by adding 30 mL of sterile saline USP to smaller units (Donor 1 and 3) or filling 2 oz jar to the top (60 mL) with saline for larger units (Donor 2), incubating for 2 mins, decanting, and tap-drying with sterile gauze. • 24. 60 mg of lyopreserved tissue per donor and 20 uL of saline were added in triplicate for each PBMC donor in 96 well plates. • 24.1 Saline is used as a negative control. • 25. PBMCs from two mismatched blood donors were added to each test group (250K cells per blood donor) and incubated for 5 days at 37° C. in 5% CO2 in humidifier incubator. • 26. Concanavalin A (ConA) was used as a stimulation positive control to ensure that cells (PBMC) were in good condition to proliferate. • 27. Stimulation Index (SI) was calculated as proliferating cell percentage from wells with two mismatched donors with lyopreserved tissue divided by proliferating cell percentage from wells with the same mismatched donor cells treated with saline.

[3] = Donor A-CPD + Donor B-Unstained MLR
[4] = Donor B-CPD + Donor C-Unstained MLR
[5] = Donor C-CPD + Donor A-Unstained MLR

Concanavalin A [ConA] was tested, and the “Proliferated cells (% of all CPD stained), Average” value ([1]; PBMC Donor A) was 45.2%, the “Stimulation Index” value ([1]; PBMC Donor A) was 28.0 and the “Proliferated cells (% of all CPD stained), Average” value ([1]; PBMC Donor B) was 61.5%. For the same substance, the “Stimulation Index” value ([1]; PBMC Donor B) was 100.3, the “Proliferated cells (% of all CPD stained), Average” value ([1]; PBMC Donor C) was 60.6% and the “Stimulation Index” value ([1]; PBMC Donor C) was 155.4. For the same substance, the “Proliferated cells (% of all CPD stained), Average” value [2, 3] was 57.8%, the “Stimulation Index” value [2, 3] was 8.1 and the “Proliferated cells (% of all CPD stained), Average” value [2, 4] was 39.5%. For the same substance, the “Stimulation Index” value [2, 4] was 5.3, the “Proliferated cells (% of all CPD stained), Average” value [2, 5] was 50.6% and the “Stimulation Index” value [2, 5] was 4.9.
